Biological target: CA125 (carbohydrate antigen 125) (UniProt Q8WXI7 1-14451)
Experiment: AuNP aggregation aptasensor (A660/A520); 200 nM aptamer, citrate AuNPs ~13 nm, NaCl 1 M stock added after binding; linear 15-160 U/mL, LOD 14.41 U/mL; 50 uL CA125 (15-160 U/mL) + 50 uL aptamer (200 nM), 30 min, room temperature; then 50 uL AuNPs 5 min, 10 uL 1 M NaCl 5 min; buffer and pH not stated
Settings: protein: commercial; predicted stem-loop

TCACTATAGGGAGACAAGAATAAACGCTCAA (ssDNA) [CA125 aptamer (31-mer)]
binding result: binds

From article PMC11827763, “A Gold Nanoparticle-based Aptasensor for Specific Detection of CA125”
